In article PMC10769881, “Plasmid-encoded toxin defence mediates mutualistic microbial interactions” (Nature Microbiology, 2023) one finds Km and kcat data, which are given here for one substance.

In data set [1] the test system is NC(=O)c1ccc[n+]([C@@H]2O[C@H](COP(=O)(O)OP(=O)(O)OC[C@H]3O[C@@H](n4cnc5c(N)ncnc54)[C@H](O)[C@@H]3O)[C@@H](O)[C@H]2O)c1. The data set can be described thus: purified protein. The class given is biochemical, Enterococcus faecalis. The settings on record: 1,3-propanediol oxidation direction, 37 °C, 1,3-propanediol as co-substrate, its concentration and pH of assay not told, varied: cofactor.

The subject of data set [2] is OCCCO. The data set can be described thus: purified protein. The settings on record: NAD+ close to saturation, 37 °C, pH of assay not told, kcat printed as Vmax per enzyme molecule, closely corresponding to kcat. Format: biochemical, Enterococcus faecalis.

By Km is commonly meant the substrate concentration at which the rate is half of its maximum. As usually defined, the kcat is the number of substrate molecules converted per active site and unit of time at saturation. As for “1,3-propanediol dehydrogenase (1,3-PD), rumen plasmid-encoded (Enterococcus faecalis)”, in data set [1], the Michaelis constant (Km) is reported as 0.25 ± 0.04 mM. In addition, in data set [2], the Michaelis constant (Km) came to 17 ± 6 mM and the kcat came to 0.183 ± 0.017 s⁻¹.
